{"source": "the supplement of paper PMC7877785", "test": "self-splicing fitness, log relative to wild type (ln ratio); higher = more splicing; Tetrahymena group I intron in knt gene, E. coli kanamycin selection, DiMSum; sequences stand for … in CUCUCU…GGAGGGAAAAGUUAUCAGGCAUGCACCUGGUAGCUAGUCUUUAAACCAAUAGAUUGCAUCGGUUUAAAAGGCAAGACCGUCAAAUUGCGGGAAAGGGGUCAACAGCCGUUCAGUACCAAGUCUCAGGGGAAACUUUGAGAUGGCCUUGCAAAGGGUAUGGUAAUAAGCUGACGGACAUGGUCCUAACCACGCAGCCAAGUCCUAAGUCAACAGAUCUUCUGUUGAUAUGGAUGCAGUUCACAGACUAAAUGUCGGUCGGGGAAGAUGUAUUCUUCUCAUAAGAUAUAGUCGGACCUCUCCUUAAUGGGAGCUAGCGGAUGAAGUGAUGCAACACUGGAGCCGCUGGGAACUAAUUUGUAUGCGAAAGUAUAUUGAUUAGUUUUGGAGUACUCGUGGUCG", "in_short": "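Pooled colonies went to amplicon sequencing on an Illumina HiSeq 2500 after six replicate transformations. The plates were LB agar with 100 μg/mL carbenicillin, 50 μM IPTG and 0.2% rhamnose, with or without 25 μg/mL kanamycin, incubated overnight at 37°C or 30°C. The E. coli BL21(DE3) library had all eight P1ex-region intron nucleotides randomised, the intron placed in the knt kanamycin-resistance gene on pET-22b(+). DiMSum fitness is the error-weighted combination of replicate fold changes, kanamycin against none, normalised to wild type.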", "note": "± gives the uncertainty stated by the source."}
{"sequence": "CCUGAGCAAUAUUACGUGAG", "values": [{"measurement": "self-splicing fitness (ln)", "setting": "30 °C", "value": "-3.61 ± 0.27"}, {"measurement": "self-splicing fitness (ln)", "setting": "37 °C", "value": "-2.28 ± 0.24"}]}
{"sequence": "UGAAAGCAAUAUUACGUUCA", "values": [{"measurement": "self-splicing fitness (ln)", "setting": "30 °C", "value": "-2.03 ± 0.13"}, {"measurement": "self-splicing fitness (ln)", "setting": "37 °C", "value": "-1.48 ± 0.14"}]}
{"sequence": "AUAUAGCAAUAUUACGCGGU", "values": [{"measurement": "self-splicing fitness (ln)", "setting": "30 °C", "value": "-2.75 ± 0.18"}, {"measurement": "self-splicing fitness (ln)", "setting": "37 °C", "value": "-2.28 ± 0.19"}]}
{"sequence": "UUUAAGCAAUAUUACGACAA", "values": [{"measurement": "self-splicing fitness (ln)", "setting": "30 °C", "value": "-0.409 ± 0.098"}, {"measurement": "self-splicing fitness (ln)", "setting": "37 °C", "value": "-0.304 ± 0.12"}]}
{"sequence": "GACCAGCAAUAUUACGCUCA", "values": [{"measurement": "self-splicing fitness (ln)", "setting": "30 °C", "value": "-0.152 ± 0.059"}, {"measurement": "self-splicing fitness (ln)", "setting": "37 °C", "value": "-0.295 ± 0.079"}]}
{"sequence": "AAAAAGCAAUAUUACGCUAA", "values": [{"measurement": "self-splicing fitness (ln)", "setting": "30 °C", "value": "-2.36 ± 0.15"}, {"measurement": "self-splicing fitness (ln)", "setting": "37 °C", "value": "-1.35 ± 0.13"}]}
{"sequence": "CUUCAGCAAUAUUACGUAUC", "values": [{"measurement": "self-splicing fitness (ln)", "setting": "30 °C", "value": "-4.15 ± 0.27"}, {"measurement": "self-splicing fitness (ln)", "setting": "37 °C", "value": "-2.48 ± 0.23"}]}
{"sequence": "UCCGAGCAAUAUUACGACGC", "values": [{"measurement": "self-splicing fitness (ln)", "setting": "37 °C", "value": "-1.61 ± 0.42"}]}
{"sequence": "AGAAAGCAAUAUUACGAGAU", "values": [{"measurement": "self-splicing fitness (ln)", "setting": "30 °C", "value": "-3.45 ± 0.24"}, {"measurement": "self-splicing fitness (ln)", "setting": "37 °C", "value": "-1.99 ± 0.2"}]}
{"sequence": "GUGCAGCAAUAUUACGACCC", "values": [{"measurement": "self-splicing fitness (ln)", "setting": "30 °C", "value": "-0.76 ± 0.13"}, {"measurement": "self-splicing fitness (ln)", "setting": "37 °C", "value": "0.132 ± 0.18"}]}
{"sequence": "AUGUAGCAAUAUUACGAAAC", "values": [{"measurement": "self-splicing fitness (ln)", "setting": "30 °C", "value": "-2.77 ± 0.24"}, {"measurement": "self-splicing fitness (ln)", "setting": "37 °C", "value": "-1.76 ± 0.27"}]}
{"sequence": "AGCAAGCAAUAUUACGUUCC", "values": [{"measurement": "self-splicing fitness (ln)", "setting": "30 °C", "value": "-1.21 ± 0.12"}, {"measurement": "self-splicing fitness (ln)", "setting": "37 °C", "value": "-0.544 ± 0.13"}]}
{"sequence": "UUCGAGCAAUAUUACGUAGU", "values": [{"measurement": "self-splicing fitness (ln)", "setting": "30 °C", "value": "-2.91 ± 0.29"}, {"measurement": "self-splicing fitness (ln)", "setting": "37 °C", "value": "-0.98 ± 0.25"}]}
{"sequence": "CAUUAGCAAUAUUACGGCAA", "values": [{"measurement": "self-splicing fitness (ln)", "setting": "30 °C", "value": "-2 ± 0.22"}, {"measurement": "self-splicing fitness (ln)", "setting": "37 °C", "value": "-3.22 ± 0.47"}]}
{"sequence": "ACCGAGCAAUAUUACGGCAG", "values": [{"measurement": "self-splicing fitness (ln)", "setting": "30 °C", "value": "-4.4 ± 0.39"}]}
{"sequence": "GAGCAGCAAUAUUACGCCAA", "values": [{"measurement": "self-splicing fitness (ln)", "setting": "30 °C", "value": "-1.55 ± 0.29"}, {"measurement": "self-splicing fitness (ln)", "setting": "37 °C", "value": "-1.43 ± 0.31"}]}
{"sequence": "UAACAGCAAUAUUACGCUGU", "values": [{"measurement": "self-splicing fitness (ln)", "setting": "30 °C", "value": "-3.79 ± 0.16"}, {"measurement": "self-splicing fitness (ln)", "setting": "37 °C", "value": "-2.62 ± 0.19"}]}
{"sequence": "UGCAAGCAAUAUUACGACUC", "values": [{"measurement": "self-splicing fitness (ln)", "setting": "30 °C", "value": "-2.66 ± 0.18"}, {"measurement": "self-splicing fitness (ln)", "setting": "37 °C", "value": "-1.56 ± 0.17"}]}
{"sequence": "UUAAAGCAAUAUUACGAUUU", "values": [{"measurement": "self-splicing fitness (ln)", "setting": "30 °C", "value": "-0.89 ± 0.063"}, {"measurement": "self-splicing fitness (ln)", "setting": "37 °C", "value": "0.0458 ± 0.099"}]}
{"sequence": "CCGAAGCAAUAUUACGAGCC", "values": [{"measurement": "self-splicing fitness (ln)", "setting": "30 °C", "value": "-3.7 ± 0.26"}, {"measurement": "self-splicing fitness (ln)", "setting": "37 °C", "value": "-2.8 ± 0.23"}]}
{"sequence": "AACGAGCAAUAUUACGAAGA", "values": [{"measurement": "self-splicing fitness (ln)", "setting": "30 °C", "value": "-3.13 ± 0.33"}, {"measurement": "self-splicing fitness (ln)", "setting": "37 °C", "value": "-1.82 ± 0.44"}]}
{"sequence": "CCUGAGCAAUAUUACGUCUU", "values": [{"measurement": "self-splicing fitness (ln)", "setting": "37 °C", "value": "-2.42 ± 0.23"}]}
{"sequence": "GUGAAGCAAUAUUACGUCAC", "values": [{"measurement": "self-splicing fitness (ln)", "setting": "37 °C", "value": "-2.47 ± 0.48"}]}
{"sequence": "CAUUAGCAAUAUUACGGGUC", "values": [{"measurement": "self-splicing fitness (ln)", "setting": "30 °C", "value": "-3.51 ± 0.29"}, {"measurement": "self-splicing fitness (ln)", "setting": "37 °C", "value": "-1.5 ± 0.23"}]}
{"sequence": "GCUAAGCAAUAUUACGCGUG", "values": [{"measurement": "self-splicing fitness (ln)", "setting": "30 °C", "value": "-1.88 ± 0.092"}, {"measurement": "self-splicing fitness (ln)", "setting": "37 °C", "value": "-1.44 ± 0.12"}]}
{"sequence": "UGUUAGCAAUAUUACGCCGU", "values": [{"measurement": "self-splicing fitness (ln)", "setting": "30 °C", "value": "-1.98 ± 0.44"}, {"measurement": "self-splicing fitness (ln)", "setting": "37 °C", "value": "-0.747 ± 0.42"}]}
{"sequence": "ACUAAGCAAUAUUACGGCUA", "values": [{"measurement": "self-splicing fitness (ln)", "setting": "30 °C", "value": "-0.685 ± 0.085"}, {"measurement": "self-splicing fitness (ln)", "setting": "37 °C", "value": "0.0711 ± 0.11"}]}
{"sequence": "CUUGAGCAAUAUUACGGCCU", "values": [{"measurement": "self-splicing fitness (ln)", "setting": "30 °C", "value": "-3.92 ± 0.37"}]}
{"sequence": "UCGAAGCAAUAUUACGAAGU", "values": [{"measurement": "self-splicing fitness (ln)", "setting": "30 °C", "value": "-4.55 ± 0.32"}, {"measurement": "self-splicing fitness (ln)", "setting": "37 °C", "value": "-1.43 ± 0.19"}]}
{"sequence": "CGGCAGCAAUAUUACGUUUA", "values": [{"measurement": "self-splicing fitness (ln)", "setting": "30 °C", "value": "-2.06 ± 0.12"}, {"measurement": "self-splicing fitness (ln)", "setting": "37 °C", "value": "-1.53 ± 0.13"}]}
{"sequence": "GAUUAGCAAUAUUACGGAUA", "values": [{"measurement": "self-splicing fitness (ln)", "setting": "30 °C", "value": "-1.36 ± 0.17"}, {"measurement": "self-splicing fitness (ln)", "setting": "37 °C", "value": "0.0656 ± 0.2"}]}
{"sequence": "ACCAAGCAAUAUUACGAAAG", "values": [{"measurement": "self-splicing fitness (ln)", "setting": "30 °C", "value": "-3.27 ± 0.18"}, {"measurement": "self-splicing fitness (ln)", "setting": "37 °C", "value": "-1.78 ± 0.14"}]}
{"sequence": "UGGCAGCAAUAUUACGUGGA", "values": [{"measurement": "self-splicing fitness (ln)", "setting": "30 °C", "value": "-2.38 ± 0.17"}, {"measurement": "self-splicing fitness (ln)", "setting": "37 °C", "value": "-1.02 ± 0.13"}]}
{"sequence": "UACAAGCAAUAUUACGGAUU", "values": [{"measurement": "self-splicing fitness (ln)", "setting": "30 °C", "value": "-3.61 ± 0.15"}, {"measurement": "self-splicing fitness (ln)", "setting": "37 °C", "value": "-0.762 ± 0.09"}]}
{"sequence": "GAGCAGCAAUAUUACGGAGC", "values": [{"measurement": "self-splicing fitness (ln)", "setting": "30 °C", "value": "-3.14 ± 0.13"}, {"measurement": "self-splicing fitness (ln)", "setting": "37 °C", "value": "-0.471 ± 0.11"}]}
{"sequence": "CGGGAGCAAUAUUACGUCAG", "values": [{"measurement": "self-splicing fitness (ln)", "setting": "30 °C", "value": "-3.08 ± 0.19"}, {"measurement": "self-splicing fitness (ln)", "setting": "37 °C", "value": "-2.34 ± 0.24"}]}
{"sequence": "CCAUAGCAAUAUUACGGAGA", "values": [{"measurement": "self-splicing fitness (ln)", "setting": "30 °C", "value": "-4.12 ± 0.28"}, {"measurement": "self-splicing fitness (ln)", "setting": "37 °C", "value": "-3.35 ± 0.29"}]}
{"sequence": "AACGAGCAAUAUUACGCUCU", "values": [{"measurement": "self-splicing fitness (ln)", "setting": "30 °C", "value": "-5.11 ± 0.41"}, {"measurement": "self-splicing fitness (ln)", "setting": "37 °C", "value": "-1.81 ± 0.14"}]}
{"sequence": "CGUAAGCAAUAUUACGGUAC", "values": [{"measurement": "self-splicing fitness (ln)", "setting": "30 °C", "value": "-3.29 ± 0.28"}, {"measurement": "self-splicing fitness (ln)", "setting": "37 °C", "value": "-1.78 ± 0.19"}]}
